What is called Ki is the equilibrium dissociation constant of an inhibitor or competing ligand from its target.

We go through one molecule from patent US7033991 (dated 2006).

The assay has as its target Furin (literature) (UniProt P09958).

Sequence of Furin (literature) (P09958 108-715): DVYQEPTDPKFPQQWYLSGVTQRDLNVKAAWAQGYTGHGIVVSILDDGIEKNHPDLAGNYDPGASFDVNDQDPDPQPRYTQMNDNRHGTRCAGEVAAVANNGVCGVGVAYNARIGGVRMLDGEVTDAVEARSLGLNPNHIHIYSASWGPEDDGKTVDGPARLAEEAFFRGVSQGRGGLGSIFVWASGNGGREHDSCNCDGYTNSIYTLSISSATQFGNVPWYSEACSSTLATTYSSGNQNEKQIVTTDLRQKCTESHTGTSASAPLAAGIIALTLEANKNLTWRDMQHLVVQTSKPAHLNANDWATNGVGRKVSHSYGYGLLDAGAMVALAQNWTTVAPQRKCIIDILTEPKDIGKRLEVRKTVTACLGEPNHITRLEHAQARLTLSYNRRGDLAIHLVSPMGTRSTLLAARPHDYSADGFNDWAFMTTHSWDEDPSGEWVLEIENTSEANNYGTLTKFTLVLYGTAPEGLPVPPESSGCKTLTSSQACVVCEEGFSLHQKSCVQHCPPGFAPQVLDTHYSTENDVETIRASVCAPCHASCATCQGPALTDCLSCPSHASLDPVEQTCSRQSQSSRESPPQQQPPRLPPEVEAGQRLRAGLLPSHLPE

B1: Proteinase inhibitor 8 (PI8) (protein)
chain: MDDLCEANGTFAISLFKILGEEDNSRNVFFSPMSISSALAMVFMGAKGSTAAQMSQALCLYKDGDIHRGFQSLLSEVNRTGTQYLLRTANRLFGEKTCDFLPDFKEYCQKFYQAELEELSFAEDTEECRKHINDWVAEKTEGKISEVLDAGTVDPLTKLVLVNAIYFKGKWNEQFDRKYTRGMLFKTNEEKKTVQMMFKEAKFKMGYADEVHTQVLELPYVEEELSMVILLPDDNTDLAVVEKALTYEKFKAWTNSEKLTKSKVQVFLPRLKLEESYDLEPFLRRLGMIDAFDEAKADFSGMSTEKNVPLSKVAHKCFVEVNEEGTEAAAATAVVRNSRCSRMEPRFCADHPFLFFIRHHKTNCILFCGRFSSP
B1 had a Ki of 0.0538 nM. This counts as picomolar.
